Patent US20160282364A1, “ASSAY FOR INSULIN-DEGRADING ENZYME (IDE) INHIBITORS” (PRESIDENT AND FELLOWS OF HARVARD COLLEGE, priority 2013, published 2016)

Biological target: IDE (UniProt P14735)
Assay: enzyme inhibition (double inhibitor plot); 1x IC50

- IC50: 10 µM
Substance: Bacitracin
